# Assay results: US6288042
# Target: HIV-1 integrase wild-type (IN1-288) (Human immunodeficiency virus 1) (UniProt P04585)
# Test: inhibition
# Settings: I = deoxyinosine; PS at first and last linkage; 3'-processing column as printed; strand transfer column 0.070
sequence,measurement,value
IGGIIGGIIGGIIGGI [T30721],IC50,88 nM
